Experimental data as given in patent US10526691B2, “Functionalized surface” (priority 2015, dated 2020).
Ends that are not written are not given here.

Legend:
[1] = test system: S. epidemridis; test: Crystal violet absorbance of bacteria adhering to peptide-coated nitrided steel; type: cell-based; details: overnight at 37° C., FIG. 14
Protocol: Nitrided steel was incubated with a solution of an antimicrobial peptide having the sequence RRIYGRGYIRR (SEQ ID NO: 1) (25 µl, 10 mg/ml/cm^2) at room temperature for 1 hour with a HBTU/DIEA catalyst in DMF to produce a coated surface.
Coated surfaces were inoculated with […] bacterial cells (S. epidemridis) and incubated overnight at 37° C. The surfaces were then washed with PBS and stained using Crystal Violet ([…]) for 15 minutes at room temperature. The surfaces were washed three times to remove any residual stain and the stain lifted in 70% ethanol. The absorbance of crystal violet was read at 560 nm to quantify the level of stain (FIG. 14). The amount of stain is directly related to the number of bacteria.

[2] = Peptide fluorescence on nitrided titanium after environmental treatments; type: physicochemical; details: FIG. 9
Protocol: The durability of immobilized peptide on the surface of nitrided titanium was assessed following different environmental treatments, as shown in FIG. 9. […] (SEQ ID NO: 5)-coated titanium was incubated in control PBS solution, trypsin, Dettola or treated with sandpaper at room temperature for a suitable time which depended on the treatment used. The mean pixel number above the threshold was then assessed by fluorescence microscopy. Importantly, peptide fluorescence was retained after any of the environmental treatments, indicating a strong and durable interaction between peptide and metal.

[3] = Peptide coverage of nitrided steel after environmental, cleaning or coating treatments, fluorescence microscopy; type: physicochemical
Protocol: (§1) The peptide percentage surface coverage of the metal was assessed by the use of fluorescent peptides and microscopy. Peptide coated metal was viewed by a fluorescence microscope at an exposure of 1.55 s using a 10× objective. Nine images for each 1 cm^2 piece of steel were obtained. Images were analysed using ImageJ software (NIH, MD, USA). The threshold from control images, obtained from nitrided metal which had not been treated with peptide, was adjusted until all of the pixels were removed, leaving an image with no staining. This acted as a control baseline. Images from corresponding experimental samples were then adjusted to this threshold value and the residual pixel count then recorded as a measure of peptide attachment.
Mild steel was nitrided using a standard process for 19 hours at 440° C. by Metaltech. The peptide […] tagged with a fluorescent label was immobilized on the surface of the nitrided steel as described in Example 1. Peptide-coated steel was incubated in the appropriate environmental treatment at room temperature for a suitable time which depended on the treatment used. Samples were washed with saline following treatment and peptide attachment analysed by microscopy as detailed in Example 1.
Mild steel was nitrided using a standard process by Metaltech. The peptide […] (SEQ ID NO: 5) tagged with a fluorescent label was immobilized on the surface of the nitrided steel as described in Example 1. Peptide-coated steel was incubated in the appropriate environmental treatment at room temperature for a suitable time which depended on the treatment used. Samples were washed with saline following treatment and peptide attachment analysed by microscopy as detailed in Example 1.
Steel was nitrided or plasma ferretic nitrocarburised as described in Example 1, after which the peptide […] (SEQ ID NO: 5), tagged with a fluorescent label was immobilised on the nitrided surface as described in Example 1.
Peptide-coated alpha steel samples were incubated in various standard cleaning or coating treatments at room temperature, for a suitable time which depended on the treatment used, in order to determine if any of these treatments affected the attachment of the peptide to the steel. […] This decrease may be partly accounted for by loss of fluorescence over the period of 3 weeks as the steel pieces were repeatedly exposed to light.

[4] = test system: bacteria; test: Peptide-coated nitrided steel surfaces in a hospital unit over three months, bacteria counts
Protocol: A nitrided steel surface was coated with the peptide […] (SEQ ID NO: 5). The surface was dip-coated in a mixture of the peptide (3 µl of 10 mg/ml peptide per cm^2 of metal) and a catalyst (HBTU/DIEA mix) which adhered the peptide to the surface. Coating was carried out at room temperature for 12 hours.
Coated and uncoated steel surfaces were installed in a hospital unit, in the Accident and Emergency room, Operating Theatre, Ward 1 and the associated bathroom. Control surfaces and coated surfaces were situated in identical locations and tested over three months. After use the samples and data collected were sent to the University of Birmingham for analysis.

[5] = Peptide fluorescence on nitrided titanium over 1 to 4 weeks in PBS; type: physicochemical; details: FIG. 8; for change of pixel number: nitrided titanium in PBS
Protocol: Having established the durability and the efficacy of immobilized peptides on a steel surface, the efficacy of peptides immobilized on a titanium surface was assessed. Nitrided titanium was prepared by Metaltech. […] (SEQ ID NO: 5), tagged with a fluorescent label, was immobilised on the surface of the nitrided titanium as described previously. Peptide-coated samples were incubated in PBS solution at room temperature for between 1 and 4 weeks, following which fluorescence, and the resulting pixel number above threshold, was assessed as described previously by fluorescence microscopy.

[6] = test system: colony forming unit (CFU) counts; test: CFU count on peptide-coated versus control nitrided α2 steel attached to areas with high predicted CFU counts; details: α2 steel coated with unlabelled peptide; swabs on days 1, 2, 7, 8 and 9; all areas tested; FIG. 7
Protocol: α2 steel was prepared using a standard nitriding process and coated with 1 µg/ml of the unlabelled peptide […] (SEQ ID NO: 5) using the method as described in Example 1. Peptide coated, or control uncoated steel samples were then attached to areas where high colony forming unit (CFU) counts were predicted (e.g. toilet seat, kitchen tap etc.). Cotton wool buds, dipped in saline, were used to swab surfaces on days 1, 2, 7, 8 and 9. Buds were placed in sterelin tubes and used to inoculate blood agar plates, following which plates were incubated for 48 hours at 37° C. before CFU counts were taken.

[7] = test system: bacteria; test: Bacterial growth (absorbance) on peptide-coated nitrided titanium used as growth plate; type: cell-based; details: antimicrobial-peptide-coated nitrided titanium, in comparison to the controls; FIG. 10
Protocol: Nitrided titanium was prepared by Metaltech, and coated as described previously with the peptide […] (SEQ ID NO: 5), aside from a control (peptide) group in which nitrided titanium was coated with a non-antimicrobial peptide, and a control (titanium) group where the nitrided titanium remained uncoated. A positive control group, consisting of uncoated tissue culture plastic, was also used. The surfaces were washed and used as growth plates for bacteria. One group of antimicrobial peptide-coated titanium surfaces was immediately used as a growth plate for bacteria (treatment (immediate)). Another antimicrobial peptide-coated titanium group (treatment (environment)) was treated with PBS, followed by trypsin/EDTA, followed by Dettol followed by sandpapering, following which the surfaces were used as a growth plate for bacteria. The Absorbance relates to the bacteria number growing on the surface after incubation (FIG. 10). Low values indicate no bacterial growth, while high values indicate high numbers of bacteria.

[8] = Peptide attachment to nitrided / nitrocarburised steel types, fluorescence microscopy pixel count; type: physicochemical; details: FIG. 1
Protocol: Nitrided metal surfaces were incubated overnight at room temperature on a rotamixer in a solution comprising a 9:0.5:0.5 ratio of dimethylformamide (DMF), DIPIA and HBTU, respectively, and 0.5 µg/ml of the peptide […] (SEQ ID NO: 5) tagged with a fluorescent label. Following incubation, surfaces were washed with DMF, which was replenished every 5 minutes for 50 minutes, followed by saline, which was also replenished every 5 minutes for 50 minutes, before being left to air dry.
as §1

[9] = test system: bacteria; test: Peptide-coated nitrided steel surfaces on door handles, city hospital Outpatients area, three months
Protocol: A further study was carried out in the Outpatients area of a city hospital. This is a very busy area of the hospital and sees a high volume of patient and staff traffic. The peptide used was […] (SEQ ID NO: 5), and the coated steel surfaces were prepared as in Example 8.
Control and coated surfaces were placed on door handles in the Outpatients area. […] We saw 1 colony growth from the surfaces, which is believed to be due to the frequency of use of the surfaces. Surfaces were touched on average every 2 minutes during an observation period and, in a lot of cases, the surfaces had been touched immediately prior to the swabbing being undertaken.

[10] = test system: bacteria; test: Long term study of peptide-coated surfaces on taps in a medical school, one year; details: taps in toilets of a medical school; after 12 months; FIG. 13
Description: The peptide-coated surfaces described in Examples 8 and 9 were installed in a medical school. The surfaces were placed on taps in the toilets and were swabbed over a period of one year.

For “RRIYGRGYIRR (RRYIGRGYIRR) [antimicrobial peptide coated on nitrided steel]”, the “number of bacteria adhering to the surface (crystal violet absorbance at 560 nm)” value [1] was “significantly reduce the number of bacteria adhering to the surface”.
With “RRRRRRGALAGRRRRRRGALAG (also: fluorescent tag, immobilized on steel or titanium) [antimicrobial peptide immobilized covalently on nitrided steel or titanium; fluorescently tagged in the attachment studies]” the “peptide fluorescence after treatment” value ([2]; control solution, trypsin or Dettol) was “remained similar”, the “peptide fluorescence after treatment” value ([2]; mechanical agitation using sandpaper) was “retained, albeit at a lower level” and the “difference in pixel counts between treatments” value ([3]; P2 steel group as printed in the beta steel paragraph, FIG. 5, H=13.7, p=0.033) was “significant difference”. The “differences in pixel number between treatments” value ([3]; PlasOx 1 steel, FIG. 6, H=15.4 p=0.017) was “significant”, the “differences in pixel number between treatments” value ([3]; PlasOx 2 steel, FIG. 6, H=12.7 p=0.048) was “significant” and the “pixel number, PlasOx 2 steel versus PlasOx 1 steel” value ([3]; following environmental treatment, in most instances, FIG. 6) was “higher for PlasOx 2 steel than PlasOx 1 steel”. For the same sequence, the “peptide coverage of nitrided steel before and after environmental treatments” value ([3]; mild steel nitrided 19 hours at 440° C., room temperature, FIG. 2) was “remains at a similar level”, the “peptide coverage of nitrided steel following environmental treatment” value ([3]; nitrided mild steel, room temperature, FIG. 3) was “remains constant” and the “difference in pixel counts between treatments” value ([3]; α1 steels, FIG. 4, H=19.4 p=0.004) was “statistically significant difference”. For the same sequence, the “difference in pixel counts between treatments” value ([3]; α2 steels, FIG. 4, H=12.4, p=0.053) was “no significant difference”, the “difference in pixel counts between treatments” value ([3]; α3 steels, FIG. 4, H=12.8, p=0.047) was “statistically significant difference” and the “difference in pixel counts between treatments” value ([3]; β1 steels, FIG. 5, H=10.6, p=0.103) was “no significant difference”. For the same sequence, the “difference in pixel counts between treatments” value ([3]; β steels (number not given), FIG. 5, H=10.9, p=0.09) was “no significant difference”, the “percentage effectiveness of the coated surfaces compared to control surfaces” value ([4]; hospital setting, all time points over three months, FIG. 11B) was ≥ 99% and the “inhibition of bacterial growth on coated surfaces” value ([4]; hospital unit, three months, FIG. 11) was “complete inhibition of bacterial growth”. The “colony forming units on the one coated plate that showed growth” value ([4]; month 2, believed due to contamination during swabbing or plating) was “one”, the “change of pixel number” value ([5]; after 2 weeks) was “remained relatively constant” and the “change of pixel number” value ([5]; between 1 and 2 weeks) was “decreased considerably”. For the same sequence, the pixels above threshold ([5]; nitrided titanium, after 1, 2, 3 and 4 weeks in PBS solution) was “Pixels were observed above the threshold”, the “mean CFU count, peptide coated versus control” value [6] was “consistently higher mean CFU count on control pieces of metal” and the “absorbance (bacteria number growing on the surface)” value [7] was “very low absorbance values”. The “preferential binding to steel type” value ([8]; comparison of eight steel types) was “highest binding affinity for alpha steel types”, the “mean pixel counts (peptide attachment)” value ([8]; eight steel types (α1-3, β1-3, P1-P2), fluorescently tagged peptide) was “above 0” and the “percentage effectiveness of the coated surfaces compared to control surfaces” value ([9]; city hospital setting, all time points over three months, FIG. 12B) was ≥ 99%. The “levels of bacteria on peptide-coated surfaces” value ([9]; door handles, Outpatients area of a city hospital, FIG. 12) was 1 cfu, the effectiveness ([9]; door handles, Outpatients area, Example 9) was “greater than 99%” and the “inhibition of bacterial growth on treated surfaces” value [10] was “inhibition of bacterial growth was still observed”.
